Results published in the supplement of paper PMC12764529.
± gives the half width of the 95% confidence interval.

Assay: folding stability dG unfold from chymotrypsin proteolysis; higher = more stable
How it was run: (§1)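 Sequencing followed digestion of designed mini-proteins with trypsin and chymotrypsin, each at 11 concentrations in threefold dilutions together with a no-protease condition. The mini-proteins were under 80 residues, had no cysteine, sat in a PA-tagged cDNA display construct, and were kept only if AlphaFold2 dimer inter-PAE was above 15. From the counts, Bayesian fitting gave K50, and unfolding free energy was derived against a sequence-predicted unfolded-state K50 and a shared folded-state K50, per protease or combined.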

Sequence	folding stability dG unfold
SAMMKAEIVEIKFDPKTKKLTIKFPDGSKLEIKPGETIKIKIKVTVFNEETGKLEEKEITLTLKLPEGLSAG [r14_366_TrROS_Hall]	2.96 ± 0.1 kcal/mol
SAGGSAGGSAGPPPIEELLEQAKKNPNRPITIRNPGGYYIRITVKPDPNGKPEVEIEPVPSAGGSAGGSAGG [r11_300_TrROS]	0.336 ± 0.25 kcal/mol
SAGGSAKKVIVIEVKPGEKITITINGKKVEIVEVKPEGETFLIRNKDTGEIYKITVVDGKVVIEKLSAGGSA [r15_235_TrROS_Hall]	4.28 ± 0.076 kcal/mol
SAGGSAGGSAGMVDKKTGKPVEKVKVIIRNKNGKKEEKEVTLEELKELAENLPYEIEFEKSAGGSAGGSAGG [r17_125_TrROS_Hall]	0.82 ± 0.1 kcal/mol
SAGMEIKYTITVSLSSGQTLGTKTITDPGKSIEEIVKEFAKIPGLTLITVTVTNPDGTPTTVTIPVNPSAGG [r19_269_JUSTAS]	3.072 ± 0.022 kcal/mol
SAGGSAGGSAGGMVTVETAPAPEGTERVIRVTFLEVNPEDGTIVRPATLTFVVPPGDPLSAGGSAGGSAGGS [r10_86_TrMRF]	0.876 ± 0.083 kcal/mol
SAGMPGKIRVEVEAEISEDNVIKLKIKIYGPDGELIDEIEAEIYLPVPPLSPSEGGGLIEAGNPELAEGSAG [r5_944_TrMRF]	3.38 ± 0.092 kcal/mol
SAGGSMTVVIVKLRPPDSPEVLYLPFRGRLPNGDWVPISLEELLEALEALPDLEVEEIIVAPPEEISAGGSA [r2_192_TrMRF]	1.74 ± 0.087 kcal/mol
SSLSIPGATKEEFEEIAEELEKKNPGVKVTVTYDPENGVITITITKPVKDKKGNLIGTETEVITITVTKPSA [r9_378_JUSTAS]	2.26 ± 0.072 kcal/mol
SAGGSAGGSAGGMAENLSPEQLRELAKELGLSEEDLEPGQVVRFRLPNGEVIEVRVEDESAGGSAGGSAGGS [r10_623_TrROS_Hall]	0.372 ± 0.13 kcal/mol
SAGGSAGGSAGWYFPIDELQKEHPNMSPETIADFFQKDGYKIEVEPVGPEPWVKIEPPEKSAGGSAGGSAGG [r11_707_TrROS]	-0.513 ± 0.67 kcal/mol
SAGPKELAKQIKEIARELARAFHPNGQPMKMEVEIEPVSIDDENGWVRLKVKIRMPNRPVKFNITIPLKSAG [r5_53_TrROS]	3.19 ± 0.12 kcal/mol
SAGGSAESIPVDELVELAKKLGLDVTVTPLPETGLVRVEITFTTPDGSKVPATVLVHPDGRTTVFPSAGGSA [r15_1051_TrMRF]	2.208 ± 0.018 kcal/mol
MNIKVTSVLPDGTVVVTAEAPLPDGSSIRVTAARRGKDSYVLVTVNVYPTKVVADIKEVAPVSPGSPEEGGS [r1_53_TrMRF]	3.3 ± 0.12 kcal/mol
SAGGSAGGSMLTVKITLPNGEKIEIEIEAESEEEAKAAAEKLLEALREAGVSLEDVKVEVVEPSAGGSAGGS [r12_295_TrROS_Hall]	2.92 ± 0.11 kcal/mol
SAGGSAGGSKTVVITLPENEELGLEKLEELIEKVGPDAKIIISRWDPETGKVDYLVIETGEGKSAGGSAGGS [r12_913_TrMRF]	1.92 ± 0.21 kcal/mol
SAGGSAGGSAGGPLKLKVKLKLEFEVKDENGKTSKVELEVELEVELPEIVLDKNGKLLLSAGGSAGGSAGGS [r10_168_TrROS_Hall]	3.39 ± 0.26 kcal/mol
SAGGSAEEEVETVTLTVTVTVPPAPEVEVVSVEVERLPDGTLRVRAVVRLKDVPDRFVEVELTIRPSAGGSA [r15_627_TrROS_Hall]	2.95 ± 0.042 kcal/mol
SMLNIPSDWKVITIKLEYKVEPGVSEEEVKEKAIEELKKKFPKNTKIEVEVTPDPETGTVTIKITIIIKKSA [r9_657_JUSTAS]	1.38 ± 0.056 kcal/mol
SAAKIYILPGNNVILVRPPLPNGPFGELVIPTKPSELENPEFLKEIVDEIRKAGIPFEATILPPGVPPESAG [r14_60_TrMRF]	1.34 ± 0.11 kcal/mol
SAGGSAGGKIKVEIEYNGEKKEMTLDEIKALLKKNLPPNATIRVKKNGKTIPLKKVKVKKLKKKSAGGSAGG [r6_936_TrROS_Hall]	1.65 ± 0.15 kcal/mol

Assay: folding stability dG unfold (combined trypsin and chymotrypsin); higher = more stable
How it was run: as §1

Sequence	folding stability dG unfold
SAGGSAGGSMLPADTKVIKITVESTLPDGSTTTHTVTVPSSVPLEAVKEQLPPGATITEVVLASAGGSAGGS [r12_597_JUSTAS]	1.16 ± 0.059 kcal/mol
SGKVVATVPLPDGTVITVEVSPDNTVRVTVVRYRLVPNSTAPAVEVRTYTFPLPPGNPPSIQDVLDRVLSSA [r9_614_TrMRF]	4.41 ± 0.098 kcal/mol
SAGGSAGGSAGGMKIIKLEDDYYLIPFDSPEQLKAYTDIFEKLGLPVVVLPDGRLLVKGSAGGSAGGSAGGS [r10_1027_TrMRF]	2.49 ± 0.054 kcal/mol
SAGGSAGGSAGKPEFELIAKIEVNGKTYYILRNKETGEYLIYDLDTGKKYTIRKDDPNLLSAGGSAGGSAGG [r11_1007_TrROS_Hall]	2.78 ± 0.34 kcal/mol
SAGKKKVLLAVDPENNALVLVEYETVGDVTFVRSLVFHGNTTTETLGLVRVIEPGKTEKLLISVPIPPSAGG [r19_292_TrMRF]	2.26 ± 0.13 kcal/mol
SAGMVRIERDGDELLIEFEFPEDEPEAVRALIEAIESLGLEVVEAEIEAEPGEGDLRRVRLRFKIKPLESAG [r5_739_TrMRF]	4.39 ± 0.15 kcal/mol
SAGGSAGGSAGKLPEGMKMEVRPKTIFNEDGYMIKITIIRAPDPNILAINIEIIPPGDPISAGGSAGGSAGG [r11_338_TrROS]	2.14 ± 0.24 kcal/mol
SAGSSETYSFKSPEEAKKKLKEEYGVSVEELPGNRVRINLVLDNKPVVVLIDTSTNLATVVSPEVVERKSAG [r14_402_JUSTAS]	-0.257 ± 0.23 kcal/mol
SAGGSAGGMKIEPIAEDEDYIVVRVEPDLPELLEELGLEVVGVEEEGDYVIVVVKVPPEVREKFSAGGSAGG [r6_108_TrMRF]	0.336 ± 0.11 kcal/mol
SAGGSAGGSAGAPPDVEEVTVTVTITNPDGSTTTTTVTATPEELAALAAAPGRPTAVSAESAGGSAGGSAGG [r17_313_JUSTAS]	0.595 ± 0.17 kcal/mol
